Assay results published in paper PMC4078746 (Current biology : CB, 2010).

Target: the molecule itself
Assay: SEC

B1: Robo2^R1I1+2 Ig1-5 fragment (Ig1+2 of Robo, Ig3-5 of Robo2) (domain or fragment)
chain: not shown
stoichiometry N: 2
